In series [1] the target is complement C3 (UniProt P01024).
Series [2] addresses complement C3, P01024.

Sequence of complement C3, P01024 (P01024 whole entry, looked up): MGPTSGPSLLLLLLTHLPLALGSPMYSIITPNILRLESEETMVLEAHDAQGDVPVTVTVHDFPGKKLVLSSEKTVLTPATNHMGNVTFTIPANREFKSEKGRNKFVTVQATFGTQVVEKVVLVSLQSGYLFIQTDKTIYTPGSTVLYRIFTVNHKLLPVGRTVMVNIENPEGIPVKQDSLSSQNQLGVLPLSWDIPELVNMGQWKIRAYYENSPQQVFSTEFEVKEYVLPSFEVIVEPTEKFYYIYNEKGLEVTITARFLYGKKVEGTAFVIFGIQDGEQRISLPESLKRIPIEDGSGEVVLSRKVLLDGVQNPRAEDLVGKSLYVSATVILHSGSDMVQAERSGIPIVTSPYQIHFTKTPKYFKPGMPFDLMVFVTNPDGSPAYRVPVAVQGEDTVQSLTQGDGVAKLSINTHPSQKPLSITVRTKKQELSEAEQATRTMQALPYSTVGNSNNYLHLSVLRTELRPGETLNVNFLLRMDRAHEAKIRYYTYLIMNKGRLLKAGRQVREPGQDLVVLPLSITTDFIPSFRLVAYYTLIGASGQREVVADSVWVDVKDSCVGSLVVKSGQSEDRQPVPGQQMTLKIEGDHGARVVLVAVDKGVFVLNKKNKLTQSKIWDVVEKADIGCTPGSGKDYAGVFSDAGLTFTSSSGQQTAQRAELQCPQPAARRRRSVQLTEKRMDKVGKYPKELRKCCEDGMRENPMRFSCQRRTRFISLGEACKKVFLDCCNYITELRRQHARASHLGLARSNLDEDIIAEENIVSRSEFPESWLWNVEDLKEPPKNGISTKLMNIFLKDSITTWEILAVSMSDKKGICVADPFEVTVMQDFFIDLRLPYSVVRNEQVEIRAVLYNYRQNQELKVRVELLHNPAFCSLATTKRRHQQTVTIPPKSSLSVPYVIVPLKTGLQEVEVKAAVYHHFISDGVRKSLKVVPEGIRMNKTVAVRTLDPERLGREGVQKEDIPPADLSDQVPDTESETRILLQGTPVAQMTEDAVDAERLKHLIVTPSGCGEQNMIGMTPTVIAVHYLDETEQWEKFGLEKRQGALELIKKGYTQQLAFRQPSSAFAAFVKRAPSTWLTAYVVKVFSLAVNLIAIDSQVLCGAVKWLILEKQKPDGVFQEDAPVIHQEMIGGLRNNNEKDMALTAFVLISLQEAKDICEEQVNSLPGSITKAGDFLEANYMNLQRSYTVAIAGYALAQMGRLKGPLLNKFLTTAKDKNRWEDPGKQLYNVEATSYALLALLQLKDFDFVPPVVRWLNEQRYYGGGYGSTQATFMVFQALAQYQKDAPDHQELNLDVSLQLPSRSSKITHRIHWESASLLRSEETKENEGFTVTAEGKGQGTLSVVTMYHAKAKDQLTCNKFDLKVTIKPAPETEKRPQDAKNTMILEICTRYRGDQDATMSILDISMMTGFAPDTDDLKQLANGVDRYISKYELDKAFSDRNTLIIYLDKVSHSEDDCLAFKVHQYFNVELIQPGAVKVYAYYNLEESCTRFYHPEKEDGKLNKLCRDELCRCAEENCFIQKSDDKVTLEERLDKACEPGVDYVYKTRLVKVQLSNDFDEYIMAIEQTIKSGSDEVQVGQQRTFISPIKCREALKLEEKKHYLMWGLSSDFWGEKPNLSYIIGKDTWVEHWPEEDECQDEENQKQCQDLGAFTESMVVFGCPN

As to “human FXIa (activated human clotting factor XI)”, the “cleavage of the C3 a-chain to the a' chain (Western blot)” value (shortened to “cleavage of the C3 a-chain”) in series [1] is listed as “can cleave C3 in vitro in the absence of any complement proteases”.
On to “human FXa (activated human clotting factor X)”, for which the “cleavage of the C3 a-chain” value in series [1] is “can cleave C3 in vitro in the absence of any complement proteases”.

B1: bovine FXa (activated bovine clotting factor X) (protein)
chain: ANSFLEEVKQGNLERECLEEACSLEEAREVFEDAEQTDEFWSKYKDGDQCEGHPCLNQGHCKDGIGDYTCTCAEGFEGKNCEFSTREICSLDNGGCDQFCREERSEVRCSCAHGYVLGDDSKSCVSTERFPCGKFTQGRSRRWAIHTSEDALDASELEHYDPADLSPTESSLDLLGLNRTEPSAGEDGSQVVRIVGGRDCAEGECPWQALLVNEENEGFCGGTILNEFYVLTAAHCLHQAKRFTVRVGDRNTEQEEGNEMAHEVEMTVKHSRFVKETYDFDIAVLRLKTPIRFRRNVAPACLPEKDWAEATLMTQKTGIVSGFGRTHEKGRLSSTLKMLEVPYVDRSTCKLSSSFTITPNMFCAGYDTQPEDACQGDSGGPHVTRFKDTYFVTGIVSWGEGCARKGKFGVYTKVSNFLKWIDKIMKARAGAAGSRGHSEAPATWTVPPPLPL
With B1, the “cleavage of the C3 a-chain” value in series [2] is reported as “can cleave C3 in vitro in the absence of any complement proteases”.

The values above are taken from patent US20220064330A1.
